According to publication PMC11241209, “Elucidation of the Gemcitabine Transporters of Escherichia coli K-12 and Gamma-Proteobacteria Linked to Gemcitabine-Related Chemoresistance” (International Journal of Molecular Sciences, 2024):
Read-outs that look alike come from different tables or passages of the source.

Columns and labels:
NupC = molecular target: T1, NupC (Escherichia coli, UniProt P0AFF2); assay: inhibition of [3H]-gemcitabine uptake in E. coli JW2389; type: cell-based; settings: read-out: Inhibition by Other Nucleosides / Ki (μM) (Adenosine)
T1 construct: full-length, C-terminal biotin-acceptor domain tag (pT7-5/-BAD), expressed in E. coli JW2389 (nupC knockout)
T1 sequence (P0AFF2 1-400): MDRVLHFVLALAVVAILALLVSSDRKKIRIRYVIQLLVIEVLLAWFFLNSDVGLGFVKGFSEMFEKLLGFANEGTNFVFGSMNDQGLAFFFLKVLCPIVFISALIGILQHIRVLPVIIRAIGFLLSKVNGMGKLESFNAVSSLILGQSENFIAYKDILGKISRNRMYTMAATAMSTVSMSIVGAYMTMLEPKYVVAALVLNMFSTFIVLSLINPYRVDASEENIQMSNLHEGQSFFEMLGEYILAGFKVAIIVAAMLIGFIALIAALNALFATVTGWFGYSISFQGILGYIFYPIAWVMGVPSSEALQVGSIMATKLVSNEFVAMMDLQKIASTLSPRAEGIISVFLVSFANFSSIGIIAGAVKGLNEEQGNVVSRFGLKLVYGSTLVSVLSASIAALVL
Description: inhibition of [3H]-gemcitabine uptake in E. coli JW2389 on NupC

KpNupC = molecular target: T2, KpNupC (Klebsiella pneumoniae, UniProt A0A0H3H172); assay: as above; type: cell-based
T2 construct: gene KPHS_38160; full-length, C-terminal biotin-acceptor domain tag (pT7-5/-BAD), expressed in E. coli JW2389 (nupC knockout)
Description: inhibition of [3H]-gemcitabine uptake in E. coli JW2389 on KpNupC

CfNupG = molecular target: T3, CfNupG (Citrobacter freundii, UniProt A0A0D7LJ63); assay: as above; type: cell-based; settings: read-out: Inhibition by Other Nucleosides / Ki (μM) (Cytidine)
T3 construct: gene nupG; full-length, C-terminal biotin-acceptor domain tag (pT7-5/-BAD), expressed in E. coli JW2389 (nupC knockout)
T3 sequence (A0A0D7LJ63 1-418): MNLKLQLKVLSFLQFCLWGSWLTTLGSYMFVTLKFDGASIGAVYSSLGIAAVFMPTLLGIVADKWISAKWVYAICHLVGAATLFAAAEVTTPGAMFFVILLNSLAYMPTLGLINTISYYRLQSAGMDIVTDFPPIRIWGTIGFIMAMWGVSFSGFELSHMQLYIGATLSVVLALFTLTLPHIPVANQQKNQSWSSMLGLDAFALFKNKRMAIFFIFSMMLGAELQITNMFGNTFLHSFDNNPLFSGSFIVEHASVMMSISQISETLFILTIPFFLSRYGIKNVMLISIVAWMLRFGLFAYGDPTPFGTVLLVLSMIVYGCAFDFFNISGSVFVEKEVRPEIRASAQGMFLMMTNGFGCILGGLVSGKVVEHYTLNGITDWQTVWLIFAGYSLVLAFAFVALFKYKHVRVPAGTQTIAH
Description: inhibition of [3H]-gemcitabine uptake in E. coli JW2389 on CfNupG

CfNupC = molecular target: T4, CfNupC (Citrobacter freundii, UniProt A0A0D7LF62); assay: as above; type: cell-based; settings: read-out: Inhibition by Other Nucleosides / Ki (μM) (Cytidine)
T4 construct: gene nupC; full-length, C-terminal biotin-acceptor domain tag (pT7-5/-BAD), expressed in E. coli JW2389 (nupC knockout)
Description: inhibition of [3H]-gemcitabine uptake in E. coli JW2389 on CfNupC

KpNupG = molecular target: T5, KpNupG (Klebsiella pneumoniae, UniProt A6TDX2); assay: as above; type: cell-based
T5 construct: gene nupG; full-length, C-terminal biotin-acceptor domain tag (pT7-5/-BAD), expressed in E. coli JW2389 (nupC knockout)
T5 sequence (A6TDX2 1-417): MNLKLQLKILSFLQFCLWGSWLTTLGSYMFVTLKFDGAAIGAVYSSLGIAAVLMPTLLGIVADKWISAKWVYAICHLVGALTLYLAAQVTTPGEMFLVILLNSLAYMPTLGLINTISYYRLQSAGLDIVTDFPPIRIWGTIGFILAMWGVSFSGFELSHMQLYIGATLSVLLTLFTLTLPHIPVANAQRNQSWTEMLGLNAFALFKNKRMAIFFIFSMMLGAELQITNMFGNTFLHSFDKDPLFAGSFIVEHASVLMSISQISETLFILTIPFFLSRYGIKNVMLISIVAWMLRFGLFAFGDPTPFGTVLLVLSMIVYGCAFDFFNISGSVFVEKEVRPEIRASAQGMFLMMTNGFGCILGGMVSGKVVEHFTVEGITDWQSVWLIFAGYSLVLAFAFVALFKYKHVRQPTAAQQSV
Description: inhibition of [3H]-gemcitabine uptake in E. coli JW2389 on KpNupG

KpNupC2 = molecular target: T6, KpNupC2 (Klebsiella pneumoniae, UniProt A6T7A8); assay: as above; type: cell-based
T6 construct: gene nupC; full-length, C-terminal biotin-acceptor domain tag (pT7-5/-BAD), expressed in E. coli JW2389 (nupC knockout)
Description: inhibition of [3H]-gemcitabine uptake in E. coli JW2389 on KpNupC2

NupG = molecular target: T7, NupG (Escherichia coli, UniProt P0AFF4); assay: as above; type: cell-based
T7 construct: full-length, C-terminal biotin-acceptor domain tag (pT7-5/-BAD), expressed in E. coli JW2389 (nupC knockout)
T7 sequence (P0AFF4 1-418): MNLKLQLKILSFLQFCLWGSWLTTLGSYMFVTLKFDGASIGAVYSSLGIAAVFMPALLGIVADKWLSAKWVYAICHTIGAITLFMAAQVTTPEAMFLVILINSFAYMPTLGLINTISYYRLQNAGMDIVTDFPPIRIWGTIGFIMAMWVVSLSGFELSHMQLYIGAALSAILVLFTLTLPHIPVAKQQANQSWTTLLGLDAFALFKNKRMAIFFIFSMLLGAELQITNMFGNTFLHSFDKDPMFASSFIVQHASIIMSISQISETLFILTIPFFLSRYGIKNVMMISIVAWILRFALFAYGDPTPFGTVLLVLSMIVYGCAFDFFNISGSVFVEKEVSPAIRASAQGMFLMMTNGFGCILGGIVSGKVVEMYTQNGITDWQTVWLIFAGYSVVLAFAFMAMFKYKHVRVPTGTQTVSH
Description: inhibition of [3H]-gemcitabine uptake in E. coli JW2389 on NupG

[1] = tested on: Nc1ccn([C@@H]2O[C@H](CO)[C@@H](O)C2(F)F)c(=O)n1; assay: cells, lysate or membranes; type: cell-based, Citrobacter freundii; settings: labelled compound, pH 6.5, 25 °C, glycerol-energized cells
[2] = tested on: Nc1ccn([C@@H]2O[C@H](CO)[C@@H](O)C2(F)F)c(=O)n1; assay: cells, lysate or membranes; type: cell-based, Klebsiella pneumoniae; settings: labelled compound, pH 6.5, 25 °C, glycerol-energized cells
[3] = tested on: Nc1ccn([C@@H]2O[C@H](CO)[C@@H](O)C2(F)F)c(=O)n1; assay: cells, lysate or membranes; settings: labelled compound, pH 6.5, 25 °C, glycerol-energized cells
[4] = tested on: Nc1ccn([C@@H]2O[C@H](CO)[C@@H](O)C2(F)F)c(=O)n1; assay: cells, lysate or membranes; type: cell-based, Escherichia coli; settings: labelled compound, pH 6.5, 25 °C, glycerol-energized cells
[5] = substrate: Nc1ccn([C@@H]2O[C@H](CO)[C@@H](O)C2(F)F)c(=O)n1; assay: cells, lysate or membranes; settings: labelled compound, pH 6.5, 25 °C, glycerol-energized cells; remark: listed apart in the source
[6] = read-out: Inhibition by Other Nucleosides / Ki (μM) (Cytidine)

T6 sequence (A6T7A8 entry or part of it): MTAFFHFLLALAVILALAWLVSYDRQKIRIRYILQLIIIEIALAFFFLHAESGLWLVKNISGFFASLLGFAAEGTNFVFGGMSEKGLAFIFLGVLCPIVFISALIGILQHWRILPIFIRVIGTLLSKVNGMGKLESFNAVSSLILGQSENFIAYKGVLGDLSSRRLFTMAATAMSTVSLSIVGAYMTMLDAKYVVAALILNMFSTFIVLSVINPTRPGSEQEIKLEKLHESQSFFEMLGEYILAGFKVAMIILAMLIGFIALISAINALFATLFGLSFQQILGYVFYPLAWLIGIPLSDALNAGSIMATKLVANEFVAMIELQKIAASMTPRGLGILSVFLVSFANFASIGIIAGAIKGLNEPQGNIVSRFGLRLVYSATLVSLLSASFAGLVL
T2 sequence (A0A0H3H172 entry or part of it): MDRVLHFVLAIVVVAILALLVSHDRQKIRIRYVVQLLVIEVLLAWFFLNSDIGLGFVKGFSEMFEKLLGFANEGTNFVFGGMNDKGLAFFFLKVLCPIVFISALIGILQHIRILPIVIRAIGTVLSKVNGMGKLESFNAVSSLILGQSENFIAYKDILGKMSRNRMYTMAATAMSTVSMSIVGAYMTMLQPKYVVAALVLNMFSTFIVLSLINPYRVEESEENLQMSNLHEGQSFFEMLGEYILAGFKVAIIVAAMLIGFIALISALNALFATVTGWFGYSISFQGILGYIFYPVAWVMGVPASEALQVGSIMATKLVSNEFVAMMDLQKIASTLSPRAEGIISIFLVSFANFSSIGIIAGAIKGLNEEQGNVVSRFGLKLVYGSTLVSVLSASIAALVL
T4 sequence (A0A0D7LF62 entry or part of it): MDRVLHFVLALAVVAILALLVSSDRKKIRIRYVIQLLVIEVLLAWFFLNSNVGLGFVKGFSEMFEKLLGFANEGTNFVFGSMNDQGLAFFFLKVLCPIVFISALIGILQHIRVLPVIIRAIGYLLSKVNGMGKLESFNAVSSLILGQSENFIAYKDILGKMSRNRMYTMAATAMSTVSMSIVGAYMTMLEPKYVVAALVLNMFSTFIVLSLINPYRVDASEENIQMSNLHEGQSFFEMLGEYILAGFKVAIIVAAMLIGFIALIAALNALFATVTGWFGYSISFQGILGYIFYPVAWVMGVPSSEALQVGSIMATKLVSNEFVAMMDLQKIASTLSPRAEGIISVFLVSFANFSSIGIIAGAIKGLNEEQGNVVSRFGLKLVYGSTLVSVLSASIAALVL

Molecule: Nc1ncnc2c1ncn2[C@@H]1O[C@H](CO)[C@@H](O)[C@H]1O [adenosine]
- Ki (NupC): 5.4 ± 1.4 µM
- Ki (KpNupC; read-out: Inhibition by Other Nucleosides / Ki (μM) (Adenosine)): 7.7 ± 0.8 µM

Molecule: Nc1ccn([C@@H]2O[C@H](CO)[C@@H](O)[C@H]2O)c(=O)n1 [cytidine]
- Ki (CfNupG): 20.2 ± 3.8 µM
- Ki (CfNupC): 7.2 ± 1.4 µM
- Ki (KpNupG; [6]): 18.1 ± 4 µM
- Ki (KpNupC; [6]): 6.7 ± 1.3 µM
- Ki (KpNupC2; [6]): 6.5 ± 1 µM

Molecule: Nc1nc2c(ncn2[C@@H]2O[C@H](CO)[C@@H](O)[C@H]2O)c(=O)[nH]1 [guanosine]
- Ki (NupG): 15.3 ± 5.8 µM
- Ki (KpNupG; read-out: Inhibition by Other Nucleosides / Ki (μM) (Guanosine)): 18.3 ± 4.5 µM

Molecule: O=c1ccn([C@@H]2O[C@H](CO)[C@@H](O)[C@H]2O)c(=O)[nH]1 [uridine]
- Ki (KpNupC2): 6.1 ± 1 µM

Molecule: CfNupC (Citrobacter freundii)
- Km [1]: 12.8 ± 1.3 µM
- Vmax [1]: 0.102 µmol/min/mg
- Vmax/Km [1]: 7800 µL/min/mg

Molecule: CfNupG (Citrobacter freundii)
- Km [1]: 2.7 ± 0.3 µM
- Vmax [1]: 0.0474 µmol/min/mg
- Vmax/Km [1]: 17200 µL/min/mg

Molecule: KpNupC2 (Klebsiella pneumoniae subsp. pneumoniae MGH 78578)
- Km [2]: 11.6 ± 3.2 µM
- Vmax [2]: 0.0873 µmol/min/mg
- Vmax/Km [2]: 7500 µL/min/mg

Molecule: KpNupC (Klebsiella pneumoniae subsp. pneumoniae HS11286)
- Km [3]: 10.9 ± 2.0 µM
- Vmax [3]: 0.0928 µmol/min/mg
- Vmax/Km [3]: 8600 µL/min/mg

Molecule: NupC (Escherichia coli K-12)
- Km [4]: 9.8 ± 1.0 µM
- Vmax [4]: 0.0994 µmol/min/mg
- Vmax/Km [4]: 10100 µL/min/mg

B1: NupG (Escherichia coli K-12) (protein)
chain: T7 sequence (P0AFF4 1-418)
- Km [5]: 2.8 ± 0.4 µM
- Vmax [5]: 0.0461 µmol/min/mg
- Vmax/Km [5]: 16600 µL/min/mg

B2: KpNupG (Klebsiella pneumoniae subsp. pneumoniae MGH 78578) (protein)
chain: T5 sequence (A6TDX2 1-417)
- Km [5]: 2.8 ± 0.3 µM
- Vmax [5]: 0.0456 µmol/min/mg
- Vmax/Km [5]: 17100 µL/min/mg
